{"source": "paper PMC10835923", "key": {"[1]": {"molecular_target": "CXC chemokine receptor 3 isoform A (CXCR3A) on transfected CHO cells (UniProt P49682)"}, "[2]": {"molecular_target": "CXCR3 on primary human T lymphocytes stimulated with PHA and IL-2 (human (endogenous in primary T lymphocytes)) (UniProt P49682)"}}}
{"substance": "C-terminally truncated CXCL10(1-73) (from UniProt P02778 22-94) (ligand)", "values": [{"measurement": "desensitization: reduction of the calcium increase to 3 nM CXCL10(1-77) in CXCR3A-transfected CHO cells when 45 nM (69.9%) or 90 nM (72.2%) CXCL10(1-73) was added 100 s before", "setting": "[1]", "result": 72.2, "unit": "%"}, {"measurement": "CXCR3 internalization: mean MFI of surface CXCR3 on PHA- and IL-2-stimulated primary T lymphocytes, as % of medium-treated cells, after 45 nM (90.1%) or 90 nM (83.3%) for 10 min at 37 °C", "setting": "[2]", "result": 90.1, "unit": "%"}]}
